Test results taken from publication PMC3898874.
“And” between values parts separate entries of the source, which are not always exact repeats. Equal entries are not always repeated.

Target: T1, FLAG-tagged STAT1 (signal transducer and activator of transcription 1), P42224
T1 chain: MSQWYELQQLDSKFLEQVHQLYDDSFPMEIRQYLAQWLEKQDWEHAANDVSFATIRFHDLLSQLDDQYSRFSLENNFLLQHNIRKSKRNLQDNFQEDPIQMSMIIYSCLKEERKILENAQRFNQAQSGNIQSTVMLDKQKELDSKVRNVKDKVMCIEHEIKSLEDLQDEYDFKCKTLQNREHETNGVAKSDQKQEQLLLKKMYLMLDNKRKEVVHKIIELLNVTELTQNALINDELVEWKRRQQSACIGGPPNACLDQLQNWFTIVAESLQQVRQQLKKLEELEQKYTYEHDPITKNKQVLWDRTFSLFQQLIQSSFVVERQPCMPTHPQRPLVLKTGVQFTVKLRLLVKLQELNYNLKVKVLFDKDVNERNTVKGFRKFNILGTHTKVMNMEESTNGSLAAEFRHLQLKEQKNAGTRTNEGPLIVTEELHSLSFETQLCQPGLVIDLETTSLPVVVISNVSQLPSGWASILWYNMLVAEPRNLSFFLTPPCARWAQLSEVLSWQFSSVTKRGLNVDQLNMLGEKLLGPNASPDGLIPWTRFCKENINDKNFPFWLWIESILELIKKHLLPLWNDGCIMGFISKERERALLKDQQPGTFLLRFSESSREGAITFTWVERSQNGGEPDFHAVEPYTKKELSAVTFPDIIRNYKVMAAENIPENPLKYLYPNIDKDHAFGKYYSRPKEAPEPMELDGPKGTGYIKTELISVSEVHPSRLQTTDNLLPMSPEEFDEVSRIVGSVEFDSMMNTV
Test: co-IP; anti-FLAG M2 immunoprecipitation (protein A/G PLUS agarose, 4°C) from soluble whole-cell extracts (500 μg protein) of co-transfected HEK293T cells, untreated or treated 1 h with 50 U/ml IFNγ; extraction and wash buffer with 280 mM NaCl, 0.5% NP-40, 50 mM Tris/HCl pH 7.4; quantitative blots with anti-GFP and anti-β-arrestin1; control IP without FLAG-tagged STAT1
Conditions: remark: other sources report otherwise

- fold stronger co-precipitation with FLAG-tagged STAT1 than β-arrestin1-GFP (signals normalised to inputs): 3 fold and 6 fold
B1: FLAG-tagged STAT1 (signal transducer and activator of transcription 1), P42224 1-750 (natural protein)
chain: MSQWYELQQLDSKFLEQVHQLYDDSFPMEIRQYLAQWLEKQDWEHAANDVSFATIRFHDLLSQLDDQYSRFSLENNFLLQHNIRKSKRNLQDNFQEDPIQMSMIIYSCLKEERKILENAQRFNQAQSGNIQSTVMLDKQKELDSKVRNVKDKVMCIEHEIKSLEDLQDEYDFKCKTLQNREHETNGVAKSDQKQEQLLLKKMYLMLDNKRKEVVHKIIELLNVTELTQNALINDELVEWKRRQQSACIGGPPNACLDQLQNWFTIVAESLQQVRQQLKKLEELEQKYTYEHDPITKNKQVLWDRTFSLFQQLIQSSFVVERQPCMPTHPQRPLVLKTGVQFTVKLRLLVKLQELNYNLKVKVLFDKDVNERNTVKGFRKFNILGTHTKVMNMEESTNGSLAAEFRHLQLKEQKNAGTRTNEGPLIVTEELHSLSFETQLCQPGLVIDLETTSLPVVVISNVSQLPSGWASILWYNMLVAEPRNLSFFLTPPCARWAQLSEVLSWQFSSVTKRGLNVDQLNMLGEKLLGPNASPDGLIPWTRFCKENINDKNFPFWLWIESILELIKKHLLPLWNDGCIMGFISKERERALLKDQQPGTFLLRFSESSREGAITFTWVERSQNGGEPDFHAVEPYTKKELSAVTFPDIIRNYKVMAAENIPENPLKYLYPNIDKDHAFGKYYSRPKEAPEPMELDGPKGTGYIKTELISVSEVHPSRLQTTDNLLPMSPEEFDEVSRIVGSVEFDSMMNTV
